Publication PMC12053792 (Journal of Peptide Science, 2025)
“Also recorded” adds a separate entry of the source.

Assay: Circular dichroism (secondary structure)
Type: physicochemical
Description: CysBAGE4‐MalLNP and 2‐LNP formulations were analysed using DLS, circular dichroism (CD), and TEM. DLS analysis: CysBAGE4‐MalLNP and 2‐LNP formulations were diluted with Milli‐Q water and transferred to disposable cuvettes before measurement at 25°C with a 173° light scattering angle, […]. CD analysis: CysBAGE4‐MalLNP and 2‐LNP formulations were diluted with Milli‐Q water and analysed using a quartz cell with a 0.01 mm path length. Spectra were measured using a 0.5 nm step, 1 nm bandwidth and 1 s collection time per step. […]
NMR samples were analysed on either a Bruker AVIII 400 NMR system (1H-NMR frequency 400 MHz; 13C-NMR frequency 101 MHz) or a Bruker 500 MHz system (1H-NMR frequency 500 MHz; 13C-NMR frequency 125 MHz). […]
High-resolution mass spectra were recorded on a Bruker MicroTOF Focus II MS (ESI) operating in positive or negative ionisation mode. […]
Peptides were analyzed using a Waters Sunfire 5 μm, 2.1 x 150 mm column (C-18) at a flow rate of 0.6 mL/min. […]
Dynamic Light Scattering (DLS) Spectra were recorded using a Zetasizer Nano ZS (Malvern Panalytical) to measure the particle size and charge. […]
Circular Dichroism (CD) Spectra were recorded using a Chirascan spectropolarimeter (Applied Photophysics, U.K.). […]
windows, with 0.01 mm path length. Spectra were measured using a 0.5 nm step, 1 nm […]

For “3: vaccine‐adjuvant construct Pam2Cys‐SK4‐NY‐ESO‐1_157‐165 [compound 3]”, the “α‐helical character (f α)” value (CD spectra, Figures S12 and S13) was 0.41 and the “Secondary structure (in words)” value (CD, 0.01 mm path length, 180–280 nm) was “form α‐helical structures; also recorded: significantly more α‐helical character”.
